Data as given in paper PMC3104014 (The Biochemical journal, 2010).

Biological target: the molecule itself
Assay: SEC-MALS

B1: rat RNF4 RING domain (residues 124-194) (domain or fragment, UniProt O88846 124-194, looked up)
chain: GTTGLRPSGTVSCPICMDGYSEIVQNGRLIVSTECGHVFCSQCLRDSLKNANTCPTCRKKINHKRYHPIYI
- stoichiometry N: 2
